Measurements published in article doi:10.1101/2023.08.11.549911.

How the values were obtained:
[1] = biological target: LRRK2 G2019S, full-length, N-terminal Strep-FLAG (SF) tagged (human) (UniProt Q5S007); test: native gel or EMSA; conditions: remark: other sources report otherwise
[2] = biological target: LRRK2 R1441G, full-length, N-terminal Strep-FLAG (SF) tagged (human) (UniProt Q5S007); test: native gel or EMSA
[3] = biological target: Leucine-rich repeat kinase 2 (LRRK2), full-length wild type, N-terminal Strep-FLAG (SF) tagged (human) (UniProt Q5S007); test: mass photometry; conditions: remark: other sources report otherwise

“LRRK2 G2019S, full-length, N-terminal Strep-FLAG (SF) tagged, Q5S007 1-2527” gave a stoichiometry N [1] of 2.
In the case of “LRRK2 R1441G, full-length, N-terminal Strep-FLAG (SF) tagged, Q5S007 1-2527”, the stoichiometry N [2] is reported as 2.
In the case of “Leucine-rich repeat kinase 2 (LRRK2), full-length wild type, N-terminal Strep-FLAG (SF) tagged, Q5S007 1-2527”, the Kd [3] is reported as 200 nM.
